Ki data for 1 sequence are collected here from publication PMC4605297.

The series addresses T1, SsOGT C29A C29A (Sulfolobus solfataricus) (UniProt Q97VW7).
T1 sequence: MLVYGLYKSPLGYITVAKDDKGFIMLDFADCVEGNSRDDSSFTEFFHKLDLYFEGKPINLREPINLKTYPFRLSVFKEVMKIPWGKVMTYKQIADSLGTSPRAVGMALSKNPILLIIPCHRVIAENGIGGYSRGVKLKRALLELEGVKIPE
Description: competition. As to conditions: O6-methylguanine at position 26 of strand 1; EMSA: 0-25 uM protein, 0.2 uM probe, 37 C 10 min, 10 ul, buffer as ref. 17, 8% native PAGE in 1X TBE pH 8.3; competition: BG-VG assay, 50 C under ref. ….

“GGCAGTAGGCCTAGCATGACAATCTGCATTGGTGATCACGG / CGCTCATCCACAATGCAGATTGTCATGCTAGGCCTACTGCC [ds-Fwdm26]”: the inhibition constant (Ki) came out at 1030 nM.
